Experimental findings from PMC5454392, “Selective BET bromodomain inhibition as an antifungal therapeutic strategy” (Nature Communications, 2017) are described below.

First the molecules themselves.
T1: CaBdf1 BD1 (GST-tagged, wild-type) (Candida albicans (strain SC5314 / ATCC …, UniProt Q5A4W8))
T1 chain: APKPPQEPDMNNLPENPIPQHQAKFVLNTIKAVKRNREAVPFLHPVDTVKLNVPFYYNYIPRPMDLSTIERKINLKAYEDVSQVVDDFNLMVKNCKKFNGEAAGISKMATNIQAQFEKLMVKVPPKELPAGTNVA

Numbered stars: 1 amine (or outer) side, 2 acyl side, 3 side chain; on linkers, the order of the positions; unused ones are H or OH. Square brackets hold non-standard residues; d marks the D form. Ends that are not written are not given here. Arg(Me2a) = CN(C)C(=N)NCCC[C@H](N)C(=O)O; Kac = CC(=O)NCCCC[C@H](N[*:1])C(=O)[*:2]; Lys(Me3) = C[N+](C)(C)CCCC[C@H](N)C(=O)O; Arg(Me2s) = CN=C(NC)NCCC[C@H](N)C(=O)O; pT = C[C@@H](OP(=O)(O)O)[C@H](N)C(=O)O; Lys(Me2) = CN(C)CCCC[C@H](N)C(=O)O; Lys(Me) = CNCCCC[C@H](N)C(=O)O; Me2a = not defined here; me2a = not defined here

The assay deals with T1, CaBdf1 BD1 (GST-tagged, wild-type). As to the kind of experiment: histone peptide array (Active Motif MODified), 1 uM GST-tagged bromodomain, anti-GST detection, normalized mean intensity.
In turn, ARTKQTARKSTGGKAPRKQ (A Rme2s T Kme1 Q T A Rme2a Kac S T G G K A P R K Q) registered a binding score of 0.0381.

For ARTKQTARKSTGGKAPRKQ (A Rme2s T Kme2 Q T A Rme2s Kac S T G G K A P R K Q), the binding score was 0.0239.

Molecule ARTKQTARKSTGGKAPRKQ (A Rme2a T Kme2 Q T A Rme2a Kme3 S T G G K A P R K Q) displayed a binding score of 0.00254.

AR(Me2a)TK(Me2)QTAR(Me2s)K(Me3)STGGKAPRKQ (reading uncertain) displayed a binding score of 0.00145.

In turn, ARTKQTARKSTGGKAPRKQ (A R T K Q T A R Kme3 S T G G Kac A P R K Q) gave a binding score of 0.0225.

ARTKQTARKSTGGKAPRKQ (A R T K Q T A R Kme2 S T G G Kac A P R K Q) yielded a binding score of 0.0315.

Molecule ARTKQTARKSTGGKAPRKQ (A R T Kme3 Q T A Rme2s Kme1 S T G G K A P R K Q) gave a binding score of 0.00471.

On to ARTKQTARKSTGGKAPRKQ (A R T K Q T A Rme2a K S pT G G K A P R K Q), for which the binding score stood at 0.00399.

On to ARTKQTARKSTGGKAPRKQ (A R T K Q T A R Kac S pT G G K A P R K Q), for which the binding score came to 0.00544.

In the case of AR(Me2a)[pT]KQTARKSTGGKAPRKQ (reading uncertain), the binding score is 0.00181.

For the molecule A[Arg(Me2a)]T[Lys(Me)]QTA[Arg(Me2a)][Lys(Me2)]STGGKAPRKQ, the binding score came out at 0.0029.

On to ARTK(me3)QTAR(me2a)K(me3)STGGKAPRKQ (reading uncertain), for which the binding score worked out at 0.00508.

In turn, ARTKQTARKSTGGKAPRKQ (A Rme2s T Kme3 Q T A R Kme1 S T G G K A P R K Q) registered a binding score of 0.00471.

ARTKQTARKSTGGKAPRKQ (A Rme2a T Kac Q T A Rme2s Kac S T G G K A P R K Q) came in with a binding score of 0.0334.

With A[Arg(Me2a)]T[Lys(Me3)]QTA[Arg(Me2a)][Lys(Me2)]STGGKAPRKQ, the binding score was 0.00254.

On to ARTKQTARKSTGGKAPRKQ (A R T Kme3 Q T A Rme2s Kac S T G G K A P R K Q), for which the binding score is 0.0286.

Regarding ARTKQTARKSTGGKAPRKQ (A R T K Q T A Rme2a Kac S pT G G K A P R K Q), the binding score was found to be 0.00363.

In turn, A[Arg(Me2s)]T[Lys(Me2)]QTAR[Lys(Me)]STGGKAPRKQ came in with a binding score of 0.00544.

Regarding ARTKQTARKSTGGKAPRKQ (A R T Kme3 Q T A Rme2a Kme2 S T G G K A P R K Q), the binding score was determined as 0.00254.

For the molecule AR(Me2s)TK(Me3)QTAR(Me2s)K(Me3)STGGKAPRKQ, the binding score was determined as 0.00653.

ARTK(me2)QTAR(me2s)K(Me)STGGKAPRKQ: the binding score amounted to 0.00544.

Turning to ARTKQTARKSTGGK(Ac)APRKQ, the binding score was 0.0319.

With ARTKQTARKSTGGKAPRKQ (A R T Kme3 Q T A Rme2a Kme1 S T G G K A P R K Q), the binding score amounted to 0.00435.

Molecule ARTK(Me2)QTAR(Me2a)K(Me3)STGGKAPRKQ (reading uncertain) gave a binding score of 0.00181.

The molecule ARTK(Ac)QTAR(me2s)K(Ac)STGGKAPRKQ displayed a binding score of 0.0729.

In turn, A[Arg(Me2s)]T[Lys(Me3)]QTA[Arg(Me2a)][Lys(Me3)]STGGKAPRKQ registered a binding score of 0.00363.

Regarding ARTKQTARKSTGGKAPRKQ (A R T K Q T A Rme2a Kme2 S T G G K A P R K Q), the binding score worked out at 0.0029.

ARTKQTARKSTGGKAPRKQ (A R T Kme1 Q T A Rme2s Kme2 S T G G K A P R K Q) showed a binding score of 0.00471.

The molecule ARTKQTARKSTGGKAPRKQ (A Rme2a T Kme3 Q T A Rme2s Kme3 S T G G K A P R K Q) had a binding score of 0.00508.

The molecule ARTKQTARKSTGGKAPRKQ (A Rme2a T Kme2 Q T A R Kac S T G G K A P R K Q) came in with a binding score of 0.0337.

In turn, ARTKQTARKSTGGKAPRKQ (A Rme2s T Kme2 Q T A R Kme3 S T G G K A P R K Q) gave a binding score of 0.00145.

ARTKQTARKSTGGKAPRKQ (A R T Kme1 Q T A Rme2s Kac S T G G K A P R K Q) returned a binding score of 0.0305.

On to ARTKQTARKSTGGKAPRKQ (A R T Kac Q T A Rme2s Kme1 S T G G K A P R K Q), for which the binding score was determined as 0.00508.

Regarding AR(me2s)TK(me2)QTAR(me2s)K(me3)STGGKAPRKQ, the binding score stood at 0.00218.

The molecule ARTKQTARKSTGGKAPRKQ (A Rme2a T Kme3 Q T A Rme2a K S T G G K A P R K Q) registered a binding score of 0.00363.

Molecule A[Arg(Me2a)]T[Lys(Me3)]QTAR[Kac]STGGKAPRKQ came in with a binding score of 0.0344.

ARTK(Me)QTAR(Me2a)K(Me2)STGGKAPRKQ (reading uncertain): the binding score amounted to 0.0138.

Turning to A[Arg(Me2s)]T[Lys(Me2)]QTA[Arg(Me2a)][Kac]STGGKAPRKQ, the binding score was 0.0402.

On to A[Arg(Me2a)]TK(Ac)QTA[Arg(Me2a)][Lys(Me3)]STGGKAPRKQ, for which the binding score was 0.00834.

In turn, ARTKQTARKSTGGKAPRKQ (A Rme2a T Kme1 Q T A Rme2a Kme3 S T G G K A P R K Q) registered a binding score of 0.00435.

Turning to ARTKQTARKSTGGKAPRKQ (A Rme2s T Kme3 Q T A Rme2a Kme2 S T G G K A P R K Q), the binding score worked out at 0.0029.

As for A[Arg(Me2s)]T[Lys(Me)]QTA[Arg(Me2a)][Lys(Me2)]STGGKAPRKQ, the binding score came out at 0.00471.

In turn, AR(me2s)TK(Ac)QTAR(me2a)K(me2)STGGKAPRKQ (reading uncertain) registered a binding score of 0.00979.

With ARTKQTARKSTGGKAPRKQ (A Rme2s T Kme2 Q T A Rme2a Kme3 S T G G K A P R K Q), the binding score was 0.00508.

ARTKQTARKSTGGKAPRKQ (A R T Kme1 Q T A Rme2a Kac S T G G K A P R K Q): the binding score came to 0.0257.

As for ARTKQTARKSTGGKAPRKQ (A Rme2s T Kme3 Q T A Rme2s K S T G G K A P R K Q), the binding score was 0.0029.

The molecule ARTK(me2)QTAR(me2s)K(me3)STGGKAPRKQ showed a binding score of 0.0029.

Take ARTKQTARKSTGGKAPRKQ (A R T K Q T A Rme2a Kac pS pT G G K A P R K Q): the binding score came out at 0.00616.

As to ARTKQTARKSTGGKAPRKQ (A Rme2s T Kme1 Q T A Rme2s Kme1 S T G G K A P R K Q), the binding score was determined as 0.00326.

Turning to ARTKQTARKSTGGKAPRKQ (A Rme2s T Kme1 Q T A Rme2s K S T G G K A P R K Q), the binding score is 0.00326.

Take ARTKQTARKSTGGKAPRKQ (A Rme2a T Kme2 Q T A Rme2a Kac S T G G K A P R K Q): the binding score is 0.0395.

ARTKQTARKSTGGKAPRKQ (A Rme2a T Kme2 Q T A Rme2a K S T G G K A P R K Q) displayed a binding score of 0.00508.

On to AR(me2a)TK(Me)QTARKSTGGKAPRKQ (reading uncertain), for which the binding score stood at 0.0029.

On to A[Arg(Me2s)]TK(Me)QTARK(Me)STGGKAPRKQ, for which the binding score was 0.0029.

Take AR(Me2s)TK(Me3)QTAR(Me2s)K(Ac)STGGKAPRKQ: the binding score was found to be 0.017.

Take ARTKQTARKSTGGKAPRKQ (A Rme2s T Kme3 Q T A R Kme3 S T G G K A P R K Q): the binding score stood at 0.00254.
